For ten molecules, Kd results are on record in US20260193335A1 (ZOETIS SERVICES, published 2026).

To fix the notation:
B1: mAb4 (felinized anti-IL31 antibody ZTS-5864) S428Y and S434P, feline IgG1a (antibody)
heavy: DVQLVESGGDLVKPGGSLRLTCVASGFTFSDYAMSWVRQAPGKGLQWVAGIDSVGSGTSYADSVKGRFTISRDNAKNTLYLQMNSLKTEDTATYYCASGFPGSFEHWGQGTLVTVSSASTTAPSVFPLAPSCGTTSGATVALACLVLGYFPEPVTVSWNSGALTSGVHTFPAVLQASGLYSLSSMVTVPSSRWLSDTFTCNVAHPPSNTKVDKTVRKTDHPPGPKPCDCPKCPPPEMLGGPSIFIFPPKPKDTLSISRTPEVTCLVVDLGPDDSDVQITWFVDNTQVYTAKTSPREEQFNSTYRVVSVLPILHQDWLKGKEFKCKVNSKSLPSPIERTISKAKGQPHEPQVYVLPPAQEELSRNKVSVTCLIKSFHPPDIAVEWEITGQPEPENNYRTTPPQLDSDGTYFVYSKLSVDRSHWQRGNTYTCSVYHEALHPHHTQKSLTQSPGK
VL: QSVLTQPSSVSGTLGQRITISCTGSSSNIGSGYVGWYQQVPGMGPKTVIYYNSDRPSGVPDRFSGSKSGSSGTLTITGLQAEDEADYYCSVYDRTFNAVFGGGT
notes: also called mAb4 ID No. 30
B2: mAb4 (felinized anti-IL31 antibody ZTS-5864) S428Y and S434H, feline IgG1a (antibody)
heavy: DVQLVESGGDLVKPGGSLRLTCVASGFTFSDYAMSWVRQAPGKGLQWVAGIDSVGSGTSYADSVKGRFTISRDNAKNTLYLQMNSLKTEDTATYYCASGFPGSFEHWGQGTLVTVSSASTTAPSVFPLAPSCGTTSGATVALACLVLGYFPEPVTVSWNSGALTSGVHTFPAVLQASGLYSLSSMVTVPSSRWLSDTFTCNVAHPPSNTKVDKTVRKTDHPPGPKPCDCPKCPPPEMLGGPSIFIFPPKPKDTLSISRTPEVTCLVVDLGPDDSDVQITWFVDNTQVYTAKTSPREEQFNSTYRVVSVLPILHQDWLKGKEFKCKVNSKSLPSPIERTISKAKGQPHEPQVYVLPPAQEELSRNKVSVTCLIKSFHPPDIAVEWEITGQPEPENNYRTTPPQLDSDGTYFVYSKLSVDRSHWQRGNTYTCSVYHEALHHHHTQKSLTQSPGK
VL: QSVLTQPSSVSGTLGQRITISCTGSSSNIGSGYVGWYQQVPGMGPKTVIYYNSDRPSGVPDRFSGSKSGSSGTLTITGLQAEDEADYYCSVYDRTFNAVFGGGT
notes: also called mAb4 ID No. 27
B3: mAb4 (felinized anti-IL31 antibody ZTS-5864) S428Y and S434L, feline IgG1a (antibody)
heavy: DVQLVESGGDLVKPGGSLRLTCVASGFTFSDYAMSWVRQAPGKGLQWVAGIDSVGSGTSYADSVKGRFTISRDNAKNTLYLQMNSLKTEDTATYYCASGFPGSFEHWGQGTLVTVSSASTTAPSVFPLAPSCGTTSGATVALACLVLGYFPEPVTVSWNSGALTSGVHTFPAVLQASGLYSLSSMVTVPSSRWLSDTFTCNVAHPPSNTKVDKTVRKTDHPPGPKPCDCPKCPPPEMLGGPSIFIFPPKPKDTLSISRTPEVTCLVVDLGPDDSDVQITWFVDNTQVYTAKTSPREEQFNSTYRVVSVLPILHQDWLKGKEFKCKVNSKSLPSPIERTISKAKGQPHEPQVYVLPPAQEELSRNKVSVTCLIKSFHPPDIAVEWEITGQPEPENNYRTTPPQLDSDGTYFVYSKLSVDRSHWQRGNTYTCSVYHEALHLHHTQKSLTQSPGK
VL: QSVLTQPSSVSGTLGQRITISCTGSSSNIGSGYVGWYQQVPGMGPKTVIYYNSDRPSGVPDRFSGSKSGSSGTLTITGLQAEDEADYYCSVYDRTFNAVFGGGT
notes: also called mAb4 ID No. 29
B4: mAb4 (felinized anti-IL31 antibody ZTS-5864) S428Y, feline IgG1a (antibody)
heavy: DVQLVESGGDLVKPGGSLRLTCVASGFTFSDYAMSWVRQAPGKGLQWVAGIDSVGSGTSYADSVKGRFTISRDNAKNTLYLQMNSLKTEDTATYYCASGFPGSFEHWGQGTLVTVSSASTTAPSVFPLAPSCGTTSGATVALACLVLGYFPEPVTVSWNSGALTSGVHTFPAVLQASGLYSLSSMVTVPSSRWLSDTFTCNVAHPPSNTKVDKTVRKTDHPPGPKPCDCPKCPPPEMLGGPSIFIFPPKPKDTLSISRTPEVTCLVVDLGPDDSDVQITWFVDNTQVYTAKTSPREEQFNSTYRVVSVLPILHQDWLKGKEFKCKVNSKSLPSPIERTISKAKGQPHEPQVYVLPPAQEELSRNKVSVTCLIKSFHPPDIAVEWEITGQPEPENNYRTTPPQLDSDGTYFVYSKLSVDRSHWQRGNTYTCSVYHEALHSHHTQKSLTQSPGK
VL: QSVLTQPSSVSGTLGQRITISCTGSSSNIGSGYVGWYQQVPGMGPKTVIYYNSDRPSGVPDRFSGSKSGSSGTLTITGLQAEDEADYYCSVYDRTFNAVFGGGT
notes: also called mAb4 ID No. 20
B5: mAb5 (felinized anti-IL31 antibody) S428L, feline IgG1a (antibody, part only; not given: variable domains of mAb5, not shown: another chain or arm of the molecule; small tags and cut ends)
constant: ASTTAPSVFPLAPSCGTTSGATVALACLVLGYFPEPVTVSWNSGALTSGVHTFPAVLQASGLYSLSSMVTVPSSRWLSDTFTCNVAHPPSNTKVDKTVRKTDHPPGPKPCDCPKCPPPEMLGGPSIFIFPPKPKDTLSISRTPEVTCLVVDLGPDDSDVQITWFVDNTQVYTAKTSPREEQFNSTYRVVSVLPILHQDWLKGKEFKCKVNSKSLPSPIERTISKAKGQPHEPQVYVLPPAQEELSRNKVSVTCLIKSFHPPDIAVEWEITGQPEPENNYRTTPPQLDSDGTYFVYSKLSVDRSHWQRGNTYTCSVLHEALHSHHTQKSLTQSPGK
B6: mAb5 (felinized anti-IL31 antibody) S428M and S434L, feline IgG1a (antibody, part only; not given: variable domains of mAb5, not shown: another chain or arm of the molecule; small tags and cut ends)
constant: ASTTAPSVFPLAPSCGTTSGATVALACLVLGYFPEPVTVSWNSGALTSGVHTFPAVLQASGLYSLSSMVTVPSSRWLSDTFTCNVAHPPSNTKVDKTVRKTDHPPGPKPCDCPKCPPPEMLGGPSIFIFPPKPKDTLSISRTPEVTCLVVDLGPDDSDVQITWFVDNTQVYTAKTSPREEQFNSTYRVVSVLPILHQDWLKGKEFKCKVNSKSLPSPIERTISKAKGQPHEPQVYVLPPAQEELSRNKVSVTCLIKSFHPPDIAVEWEITGQPEPENNYRTTPPQLDSDGTYFVYSKLSVDRSHWQRGNTYTCSVMHEALHLHHTQKSLTQSPGK
B7: mAb5 (felinized anti-IL31 antibody) S428M and S434P, feline IgG1a (antibody, part only; not given: variable domains of mAb5, not shown: another chain or arm of the molecule; small tags and cut ends)
constant: ASTTAPSVFPLAPSCGTTSGATVALACLVLGYFPEPVTVSWNSGALTSGVHTFPAVLQASGLYSLSSMVTVPSSRWLSDTFTCNVAHPPSNTKVDKTVRKTDHPPGPKPCDCPKCPPPEMLGGPSIFIFPPKPKDTLSISRTPEVTCLVVDLGPDDSDVQITWFVDNTQVYTAKTSPREEQFNSTYRVVSVLPILHQDWLKGKEFKCKVNSKSLPSPIERTISKAKGQPHEPQVYVLPPAQEELSRNKVSVTCLIKSFHPPDIAVEWEITGQPEPENNYRTTPPQLDSDGTYFVYSKLSVDRSHWQRGNTYTCSVMHEALHPHHTQKSLTQSPGK
B8: mAb4 (felinized anti-IL31 antibody ZTS-5864) S428E, feline IgG1a (antibody, part only; not given: light constant region, not shown: another chain or arm of the molecule)
heavy: DVQLVESGGDLVKPGGSLRLTCVASGFTFSDYAMSWVRQAPGKGLQWVAGIDSVGSGTSYADSVKGRFTISRDNAKNTLYLQMNSLKTEDTATYYCASGFPGSFEHWGQGTLVTVSSASTTAPSVFPLAPSCGTTSGATVALACLVLGYFPEPVTVSWNSGALTSGVHTFPAVLQASGLYSLSSMVTVPSSRWLSDTFTCNVAHPPSNTKVDKTVRKTDHPPGPKPCDCPKCPPPEMLGGPSIFIFPPKPKDTLSISRTPEVTCLVVDLGPDDSDVQITWFVDNTQVYTAKTSPREEQFNSTYRVVSVLPILHQDWLKGKEFKCKVNSKSLPSPIERTISKAKGQPHEPQVYVLPPAQEELSRNKVSVTCLIKSFHPPDIAVEWEITGQPEPENNYRTTPPQLDSDGTYFVYSKLSVDRSHWQRGNTYTCSVEHEALHSHHTQKSLTQSPGK
VL: QSVLTQPSSVSGTLGQRITISCTGSSSNIGSGYVGWYQQVPGMGPKTVIYYNSDRPSGVPDRFSGSKSGSSGTLTITGLQAEDEADYYCSVYDRTFNAVFGGGT
B9: mAb4 (felinized anti-IL31 antibody ZTS-5864) S428H, feline IgG1a (antibody, part only; not given: light constant region, not shown: another chain or arm of the molecule)
heavy: DVQLVESGGDLVKPGGSLRLTCVASGFTFSDYAMSWVRQAPGKGLQWVAGIDSVGSGTSYADSVKGRFTISRDNAKNTLYLQMNSLKTEDTATYYCASGFPGSFEHWGQGTLVTVSSASTTAPSVFPLAPSCGTTSGATVALACLVLGYFPEPVTVSWNSGALTSGVHTFPAVLQASGLYSLSSMVTVPSSRWLSDTFTCNVAHPPSNTKVDKTVRKTDHPPGPKPCDCPKCPPPEMLGGPSIFIFPPKPKDTLSISRTPEVTCLVVDLGPDDSDVQITWFVDNTQVYTAKTSPREEQFNSTYRVVSVLPILHQDWLKGKEFKCKVNSKSLPSPIERTISKAKGQPHEPQVYVLPPAQEELSRNKVSVTCLIKSFHPPDIAVEWEITGQPEPENNYRTTPPQLDSDGTYFVYSKLSVDRSHWQRGNTYTCSVHHEALHSHHTQKSLTQSPGK
VL: QSVLTQPSSVSGTLGQRITISCTGSSSNIGSGYVGWYQQVPGMGPKTVIYYNSDRPSGVPDRFSGSKSGSSGTLTITGLQAEDEADYYCSVYDRTFNAVFGGGT
B10: mAb4 (felinized anti-IL31 antibody ZTS-5864) S428F, feline IgG1a (antibody, part only; not given: light constant region, not shown: another chain or arm of the molecule)
heavy: DVQLVESGGDLVKPGGSLRLTCVASGFTFSDYAMSWVRQAPGKGLQWVAGIDSVGSGTSYADSVKGRFTISRDNAKNTLYLQMNSLKTEDTATYYCASGFPGSFEHWGQGTLVTVSSASTTAPSVFPLAPSCGTTSGATVALACLVLGYFPEPVTVSWNSGALTSGVHTFPAVLQASGLYSLSSMVTVPSSRWLSDTFTCNVAHPPSNTKVDKTVRKTDHPPGPKPCDCPKCPPPEMLGGPSIFIFPPKPKDTLSISRTPEVTCLVVDLGPDDSDVQITWFVDNTQVYTAKTSPREEQFNSTYRVVSVLPILHQDWLKGKEFKCKVNSKSLPSPIERTISKAKGQPHEPQVYVLPPAQEELSRNKVSVTCLIKSFHPPDIAVEWEITGQPEPENNYRTTPPQLDSDGTYFVYSKLSVDRSHWQRGNTYTCSVFHEALHSHHTQKSLTQSPGK
VL: QSVLTQPSSVSGTLGQRITISCTGSSSNIGSGYVGWYQQVPGMGPKTVIYYNSDRPSGVPDRFSGSKSGSSGTLTITGLQAEDEADYYCSVYDRTFNAVFGGGT

The first experiment deals with T1, Feline FcRn (complex of FcRn-α subunit and β-microglobulin, C-terminal His tag) (feline, UniProt A0ABI7ZNY9 23-296; Q5MGS7 21-118).
T1 construct: treated here as one molecule
The experiment can be described thus: SPR Biacore, biotin-FcRn on SA chip, pH 6. How it is done: Feline FcRn was isolated, prepared and mutant Fc IgGs were assayed against feline FcRn according to Strietzel et. al., discussed above. Standard PCR was used to amplify feline FcRn-α subunit and β-microglobulin. FcRn-α subunit and β-microglobulin were co-transfected into HEK 293 cells and the FcRn complex was purified by IMAC affinity purification via the c-terminal His tag. FcRn complex was biotin labeled through BirA enzymatic biotinylatoin reaction. KD's were measured by Biacore T200 (GE Healthcare, Pittsburgh, PA, USA) or Biacore 8K (Cytiva, Marlborough, MA, USA) using a SA sensor chip.
FcRn was captured on the surface of the sensor using a modified SA capture method. 10 mM MES; 150 mM NaCl; 0.005% Tween20; 0.5 mg/mL BSA; pH6 was used as capture, method running buffer and titrations. 1×HBS-P, 0.5 mg/mL BSA; pH7.4 was also used for method running buffer and titrations. Fc mutant IgGs were flowed over receptor surfaces and affinity was determined using T200 evaluation software or Biacore Insight Evaluation software. Blank runs containing buffer only were subtracted out from all runs. Flow cells were regenerated using 50 mM Tris pH8 or pH9. Runs were performed at 15° C.
For B1, the Kd (usually the constant that tells how readily two partners part at equilibrium) is 40.6 nM.

B2 showed a Kd of 18.8 nM.

Molecule B3 displayed a Kd of 44 nM.

On to B4, for which binding was characterised by a dissociation constant (Kd) of 63.4 nM.

The target in a further experiment is Feline FcRn (complex of FcRn-α subunit and β-microglobulin, C-terminal His tag) (feline). The experiment can be described thus: SPR Biacore, biotin-FcRn on SA chip, pH 6.
Chain of Feline FcRn (complex of FcRn-α subunit and β-microglobulin, C-terminal His tag) (feline) (chain, as listed by the source, chain 1 of 2): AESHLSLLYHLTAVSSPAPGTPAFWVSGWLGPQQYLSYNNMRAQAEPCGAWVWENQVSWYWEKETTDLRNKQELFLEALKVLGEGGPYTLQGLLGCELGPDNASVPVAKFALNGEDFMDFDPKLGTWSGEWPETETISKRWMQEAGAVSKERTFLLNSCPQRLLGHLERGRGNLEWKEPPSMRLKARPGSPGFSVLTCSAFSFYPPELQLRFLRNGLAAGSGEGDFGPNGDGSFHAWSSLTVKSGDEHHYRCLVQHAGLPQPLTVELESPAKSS
Chain of Feline FcRn (complex of FcRn-α subunit and β-microglobulin, C-terminal His tag) (feline) (Q5MGS7 21-118, chain 2 of 2): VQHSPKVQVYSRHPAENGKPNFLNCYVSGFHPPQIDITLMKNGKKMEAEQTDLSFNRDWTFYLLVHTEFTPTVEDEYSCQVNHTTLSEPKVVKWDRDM
B5 registered a Kd of 8.65 nM.

As to B6, the Kd was determined as 18.6 nM.

Take B7: the Kd was 33.2 nM.

Consider B8, for which the Kd is 37.9 nM.

Regarding B9, the Kd was found to be 25.5 nM.

Molecule B10 returned a Kd of 29.7 nM.
